Among the data in paper PMC12412652 (2025) are Kd values, retold here.

Bounds are passed on as bounds.

B1: αBAK2 (designed binder)
chain: GADPKKVLDKADDQMENVVVTLKQELEELAKERRKLDLTQSEKIELKLRYIVAHLAAIGDIEEAIREAKEEADKLKKAGLVNSQQFAEFKRRLEELHKEADRKRRDYAEEFRNKLEYG
B2: αBAK1 (designed binder)
chain: GADPKKVLDKAKDQMENVVRKLKQILEELAKEARKLDLTQDEKIELILRYIVAHLAAIGDIEEAIREAKEEADKLKKAGLVNSQQLDEFKRRLEELHKEADRKRRDYAEEFRNKLEYG
B3: BAK-CDP02 (BAK-targeting computationally designed protein 02 of 11) (designed binder)
chain: GADPKKVLDKAKDQAENVVRKLKQILEELYKEARKLDLTQDEKIELILRYIAAMLAAIGDILEAIRQAKEEADKLKKAGLVNSQQLDELKRRLEELRKEAARKARDYAEEFRNKLEYG
B4: αBAX2 (designed binder)
chain: GADPKKVLDKARDQAENRVRELRQKLTELYKEARKLDLTQEERRKLIKRYKAAMNEAIKDIHEAIEQAKEEADKLKDAGLVNEQQLKELKQRLNEKALAAAFRASGDTWHARRKLQYG
modifications: biotinylated for BLI (Avi tag). Limits not given; the soluble form lacking the transmembrane segment (210-226) is taken by convention. Any loop deletion is not stated
B5: BAX-CDP01 (BAX-targeting computationally designed protein 01) (designed binder)
chain: GADPKKVLDKARDQAENRVRELAQKLEELYKEARKLDLTQEERRKLEKRYKAAMEEAIKDIREAIRQAKQEADKLKKAGLVNSQQLKELKQRLNELAIAAALRAIGDAIEFRRKLQYG
modifications: biotinylated for BLI (Avi tag). Limits not given; the soluble form lacking the transmembrane segment (210-226) is taken by convention. Any loop deletion is not stated
B6: αBAX1 (designed binder)
chain: GADPKKVLDKARDQAENRVRELAQKLEELYKEARKLDLTQEERRKLEKRYKAAMEEAIKDIHEAIEQAKEEADKLKDAGLVNEQQLKELKQRLNELAIAAAFRASGDTIEFRRKLQYG
modifications: biotinylated for BLI (Avi tag). Limits not given; the soluble form lacking the transmembrane segment (210-226) is taken by convention. Any loop deletion is not stated
B7: αBAK1 (designed binder)
chain: GADPKKVLDKAKDQMENVVRKLKQILEELAKEARKLDLTQDEKIELILRYIVAHLAAIGDIEEAIREAKEEADKLKKAGLVNSQQLDEFKRRLEELHKEADRKRRDYAEEFRNKLEYG
modifications: biotinylated for BLI (Avi tag). Limits not given; the soluble form lacking the transmembrane segment (210-226) is taken by convention. Any loop deletion is not stated
B8: αBAK2 (designed binder)
chain: GADPKKVLDKADDQMENVVVTLKQELEELAKERRKLDLTQSEKIELKLRYIVAHLAAIGDIEEAIREAKEEADKLKKAGLVNSQQFAEFKRRLEELHKEADRKRRDYAEEFRNKLEYG
modifications: biotinylated for BLI (Avi tag). Limits not given; the soluble form lacking the transmembrane segment (210-226) is taken by convention. Any loop deletion is not stated
B9: BAK-CDP02 (BAK-targeting computationally designed protein 02 of 11) (designed binder)
chain: GADPKKVLDKAKDQAENVVRKLKQILEELYKEARKLDLTQDEKIELILRYIAAMLAAIGDILEAIRQAKEEADKLKKAGLVNSQQLDELKRRLEELRKEAARKARDYAEEFRNKLEYG
modifications: biotinylated for BLI (Avi tag). Limits not given; the soluble form lacking the transmembrane segment (210-226) is taken by convention. Any loop deletion is not stated
B10: αBAX1 (designed binder)
chain: GADPKKVLDKARDQAENRVRELAQKLEELYKEARKLDLTQEERRKLEKRYKAAMEEAIKDIHEAIEQAKEEADKLKDAGLVNEQQLKELKQRLNELAIAAAFRASGDTIEFRRKLQYG
modifications: biotinylated for BLI (Avi tag). Limits not printed in the text (constructs as in cited earlier work); the soluble form lacking the C-terminal tail is taken by convention. Any solubility mutations are not stated
B11: BAX-CDP01 (BAX-targeting computationally designed protein 01) (designed binder)
chain: GADPKKVLDKARDQAENRVRELAQKLEELYKEARKLDLTQEERRKLEKRYKAAMEEAIKDIREAIRQAKQEADKLKKAGLVNSQQLKELKQRLNELAIAAALRAIGDAIEFRRKLQYG
modifications: biotinylated for BLI (Avi tag). Limits not printed in the text (constructs as in cited earlier work); the soluble form lacking the C-terminal tail is taken by convention. Any solubility mutations are not stated
B12: αBAX2 (designed binder)
chain: GADPKKVLDKARDQAENRVRELRQKLTELYKEARKLDLTQEERRKLIKRYKAAMNEAIKDIHEAIEQAKEEADKLKDAGLVNEQQLKELKQRLNEKALAAAFRASGDTWHARRKLQYG
modifications: biotinylated for BLI (Avi tag). Limits not printed in the text (constructs as in cited earlier work); the soluble form lacking the C-terminal tail is taken by convention. Any solubility mutations are not stated
B13: αBAK1 (designed binder)
chain: GADPKKVLDKAKDQMENVVRKLKQILEELAKEARKLDLTQDEKIELILRYIVAHLAAIGDIEEAIREAKEEADKLKKAGLVNSQQLDEFKRRLEELHKEADRKRRDYAEEFRNKLEYG
modifications: biotinylated for BLI (Avi tag). Limits not printed in the text (constructs as in cited earlier work); the soluble form lacking the C-terminal tail is taken by convention. Any solubility mutations are not stated

Sequence of MBP-BAX 1-166 C62S C126S, biotinylated (Avi tag, 6-histidine tag) (Q07812 1-166 C62S/C126S): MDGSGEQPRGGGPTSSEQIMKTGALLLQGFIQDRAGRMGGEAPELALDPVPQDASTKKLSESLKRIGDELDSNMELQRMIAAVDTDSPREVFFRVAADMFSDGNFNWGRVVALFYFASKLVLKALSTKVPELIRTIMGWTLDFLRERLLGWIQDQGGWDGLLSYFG

One experiment addresses T1, BFL-1 (UniProt Q16548 1-175, biotin).
T1 chain: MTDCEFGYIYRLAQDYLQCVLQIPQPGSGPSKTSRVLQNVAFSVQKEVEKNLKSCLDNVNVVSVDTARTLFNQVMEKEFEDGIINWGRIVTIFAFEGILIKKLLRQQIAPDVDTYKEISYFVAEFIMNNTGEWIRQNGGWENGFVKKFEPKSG
Kind of experiment: BLI.
B1 gave a Kd of 0.96 µM.

With B2, the affinity, expressed as Kd, was 1.7 µM.

B3 had a Kd of 0.01 µM.

In another experiment the target is BCL-XL (Homo sapiens). Description: BLI. Background: Biolayer interferometry detects binding as a change in optical thickness at a sensor tip.
Sequence of BCL-XL (Homo sapiens) (chain, as listed by the source): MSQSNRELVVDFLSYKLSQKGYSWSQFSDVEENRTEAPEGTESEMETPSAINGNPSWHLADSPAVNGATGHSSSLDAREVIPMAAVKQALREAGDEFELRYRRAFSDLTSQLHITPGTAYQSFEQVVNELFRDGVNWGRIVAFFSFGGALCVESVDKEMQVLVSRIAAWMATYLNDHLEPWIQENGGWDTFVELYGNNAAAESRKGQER
In the case of B4, binding was put at a Kd of 1.09 µM.

Molecule B5 came in with a Kd of 0.038 µM.

As for B6, the dissociation constant Kd was found to be 0.51 µM.

Regarding B7, the Kd turned out to be 100 µM.

Consider B8, for which the Kd amounted to 5.7 µM.

For the molecule B9, the Kd was found to be 30 µM.

A further experiment concerns the target MBP-BAX 1-166 C62S C126S, biotinylated (Avi tag, 6-histidine tag) (human, UniProt Q07812 1-166, C62S | C126S, biotin on the Avi tag (enzymatic, BirA)). Description: BLI.
On to B1, for which the Kd is over 9 µM.

In turn, B2 displayed a Kd of 10 µM.

The next experiment has as its target T2, BCL-W (Homo sapiens).
T2 chain: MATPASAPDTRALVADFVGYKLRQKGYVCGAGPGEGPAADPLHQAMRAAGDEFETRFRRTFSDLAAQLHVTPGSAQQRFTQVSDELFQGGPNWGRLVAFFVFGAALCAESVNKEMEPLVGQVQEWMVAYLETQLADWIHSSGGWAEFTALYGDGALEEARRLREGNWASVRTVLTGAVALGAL
Description: BLI.
In turn, B10 had a Kd of 300 µM.

Molecule B11 returned a Kd of 6 µM.

For B12, the affinity, expressed as Kd, was 30 µM.

Consider B13, for which binding was put at a Kd of 9.55 µM.

In a further experiment the target is BCL-2 (UniProt P10415 1-239, biotin). Description: BLI.
Sequence of BCL-2 (P10415 1-207): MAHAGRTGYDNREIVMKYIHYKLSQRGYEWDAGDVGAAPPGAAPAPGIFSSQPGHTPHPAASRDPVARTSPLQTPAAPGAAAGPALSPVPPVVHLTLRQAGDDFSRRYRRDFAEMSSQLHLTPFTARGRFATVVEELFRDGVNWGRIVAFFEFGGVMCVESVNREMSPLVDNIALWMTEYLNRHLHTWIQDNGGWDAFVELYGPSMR
The molecule B1 came in with a Kd of 0.133 µM.

B3: binding was put at a Kd of 0.13 µM.

One may read the Kd as the equilibrium constant for the complex coming apart.
